We go through 1 molecule from US20190144507A1 (GlaxoSmithKline, published 2019).

In the assay the target is T1, VZV gH (VZV (strain ), UniProt Q775J3 18-841).
T1 sequence: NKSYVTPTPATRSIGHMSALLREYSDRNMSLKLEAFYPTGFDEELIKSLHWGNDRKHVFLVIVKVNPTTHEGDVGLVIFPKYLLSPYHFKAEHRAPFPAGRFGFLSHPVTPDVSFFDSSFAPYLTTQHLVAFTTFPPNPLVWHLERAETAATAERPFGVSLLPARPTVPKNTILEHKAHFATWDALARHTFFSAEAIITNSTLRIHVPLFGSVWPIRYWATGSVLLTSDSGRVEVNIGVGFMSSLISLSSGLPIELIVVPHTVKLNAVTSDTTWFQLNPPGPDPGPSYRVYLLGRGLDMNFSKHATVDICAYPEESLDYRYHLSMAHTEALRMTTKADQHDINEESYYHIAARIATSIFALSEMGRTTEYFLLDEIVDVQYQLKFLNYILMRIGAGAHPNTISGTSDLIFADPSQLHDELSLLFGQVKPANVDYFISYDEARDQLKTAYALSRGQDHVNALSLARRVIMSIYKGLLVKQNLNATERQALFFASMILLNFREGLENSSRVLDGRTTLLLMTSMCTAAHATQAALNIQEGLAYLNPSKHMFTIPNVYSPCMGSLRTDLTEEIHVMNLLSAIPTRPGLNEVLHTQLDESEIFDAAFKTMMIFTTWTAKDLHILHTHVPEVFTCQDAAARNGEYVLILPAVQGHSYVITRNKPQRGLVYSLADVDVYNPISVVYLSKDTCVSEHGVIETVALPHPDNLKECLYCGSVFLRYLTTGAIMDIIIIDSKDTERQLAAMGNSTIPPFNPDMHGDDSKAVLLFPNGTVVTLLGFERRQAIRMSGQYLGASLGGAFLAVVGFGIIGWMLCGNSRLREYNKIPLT
Nature of the assay: immunofluorescence with antibody SG3 on transfected BHK-V cells.

B1: VZV gL (other)
chain: LHLQDDTPLFFGAKPLSDVSLIITEPCVSSVYEAWDYAAPPVSNLSEALSGIVVKTKCPVPEVILWFKDKQMAYWTNPYVTLKGLTQSVGEEHKSGDIRDALLDALSGVWVDSTPSSTNIPENGCVWGADRLFQRVCQ
B1: the binding result is listed as “binds”.
